Results on 2 molecules are retold here after PMC2845276 (The EMBO Journal, 2010).

The target of assay [1] is talin1 F0 domain (murine) (UniProt P26039).
Assay [2] has as its target GST-talin head ΔF1 loop (mouse, UniProt P26039 1-433, lacking residues 133–165). The experiment in a line: pull-down.
In assay [3] the target is GST-talin head (mouse, UniProt P26039 1-433). The experiment in a line: pull-down.

GMP.PNP-Rap1, sequence (P62834 whole entry): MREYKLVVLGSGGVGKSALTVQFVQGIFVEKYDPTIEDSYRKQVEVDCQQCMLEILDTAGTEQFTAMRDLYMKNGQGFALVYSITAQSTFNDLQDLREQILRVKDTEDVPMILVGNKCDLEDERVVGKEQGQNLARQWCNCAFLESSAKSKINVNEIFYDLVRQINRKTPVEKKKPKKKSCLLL

“GMP.PNP-Rap1 (from UniProt P62834 1-184) (natural protein)” had a Kd in assay [1] of 140000 nM. In the case of KLLMIIHDRREFAKFEKEKMNAKWDTGENPIYKSAVTTVVNPKYEGK (domain or fragment, UniProt P05556-1 752-798, looked up) [β1A-integrin cytoplasmic tail (recombinant model protein)], the Kd in assay [2] came out at 99 ± 20 nM; in assay [3] it was 124 ± 19 nM.

In general, Kd refers to the free concentration of one partner at which half of the binding sites on the other are occupied at equilibrium, for simple one-to-one binding.
